# Laboratory results from the nanobody polyreactivity screen of Harvey et al. (2022).
# Test: yeast display, Sf9 membrane polyspecificity reagent, FACS + sequencing; frameworks hold sequencing errors
# Outline: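 Synthetic nanobody libraries on Saccharomyces cerevisiae BJ5465 were galactose-induced for 36–48 hours, stained 1 hour at 4 °C with 10% biotinylated, detergent-solubilized Sf9 membrane reagent and enriched on streptavidin microbeads. FACS then separated cells into low and high (top ~1%) gates by anti-HA (expression) and streptavidin (reagent binding) fluorescence. Genes were colony-PCR amplified, MiSeq 2 × 250 sequenced and CDR-length filtered. A clone's polyreactivity label is that of its gate of origin.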
row,Sequence,polyreactivity (PSR sort gate)
1,QVQLVESGGGLVQAGGSLRLSCAASGSIAHYAMGWYRQAPGKERELVAAINWSGGSTNYADSVKGRFTISRDNAKNTVYLQMNSLKPEDTAVYYCNAAGGYKPYLQDVASRYDYWGQGTQVTVSS,high polyreactivity
2,QVQLVESGGCLFQAGGSLRLSCAASGSTFYWYTMGWYRQAHGKERELVSTMTTVGRTNYADSVKGRFTISRDNAKNTVYLQMKSLKPEVTAVYYCAASKARWPRGGCKYYYWRQGTQVTVSS,high polyreactivity
3,QVQLVDSGGGLVQAGGSLRLSCAASGRIFYTNAMGWYIQEPGKERELVAAIDYSDSTTYYADSVKGRFTISRDNAKNTVYLQMNSLKPEDTAVYYCAAESYLYTVTFEYWGQGTQVTVSS,high polyreactivity
4,QVQLVESGGGLVQAGGSLRLSCAASGIIFRDNDMGWYRQAPGKERELVASISDSGGSTYYADSVKGRFTISRDNAKNTVYLQMNSLKPEDTAVYYCAAPYLSLYWYDYWGQGTQVTVSS,low polyreactivity
5,QVQLVESGGGLVQAGGRLRLSCAASGLILSSNALGWYRQAPGKARELVAAITWDGDRTYADSVKGRFTISRDNAKNTVYLQQNSLKPEDTAVYYCAADKQYYWYDWSYEYWGQGTQVTVSW,low polyreactivity
6,QVQHVESGGGVVQAGRSLRLRCDASGFILWYYTMGWYRPAPGKERELVAAISRGGTTYYADSVKGRFTISRDNAKKSVYLQMTSLKPEDTAVYYCNAPDNTHGIVLYDYWGQGTQVTVSS,low polyreactivity
7,QVQLVESGGGLVQAGGSLRLSCAASGKPMGWYRQAPGKERELVAAITYGGTTTYYADSVKGRFTISRDNAKNTVYLQMNSQKPEDTAVYYCAADYVFVATPLRYDYWGQGTQVTVSS,low polyreactivity
8,QVQLVESGGGLVQAGGSLRLSCAASGRTFGVYVMGWYRHAPGKERELVAFITISGGSTNYADSVKGRFTISRDNAKNTVYLQMNSLKPDDTAVYYCAARTYYGYDYWGQGNQVTVSS,high polyreactivity
9,QVQLVESGGGLVQAGGSLRLSCAASGSNFRGYTMGWYRQAPGKERELVANISTSVGRTYYADSVKGRFTISRDNAKNTVFLQMNSLKPEDTAVYYCNARRAYRWKPDTGSAGMDYWGQGTQVTVSS,high polyreactivity
10,QVQLVESGGGLVQAGGSLRLSCAASGSIFIGSVMGWYRQAPGKERELVADITWSGGSTYYADSVKGRFTISRANAKNTVYLQMNSLKPEDTAVYYCAARTFVIGDYDYWYALDSWGQGTQVTVSS,low polyreactivity
11,QVQLVESGGGLVQAGGSLRLSCAASGRIYYYAMGWYRQAPGKERELVAAISRGGSTKYADSVKGRFTISRDNAKNTVYLQMNSLKPEETAVYYCAAGGTVYRYDYWGQGTQVTVSS,low polyreactivity
12,HVQLVESGGGLVQAGGSLRLSCAASGRIFYYNGMGWYRPAPGKERELVAAITPSDTSTYYAVSVKGRFTISRDNAKNTVYLQMNSLKPEDTAVYYCNADYDNHEMDYWGQGTQVTVSS,low polyreactivity
13,QVQLVESGGGLVQAGGSLRLSCAASGFIFKPNALGWYRQAPGKERELVAAITWGGDNTYYADSVKGRFTISRDNAKNTVYLQMNSLKPEDSAVYYCAAEWKFHSDASYIYDYWGQGTQVTVSS,high polyreactivity
14,QVQLVESGGGLVHPGGSLRLSCAASGIIFGRYTMGWYRQAPGKERELVAAITSSGITYYADSVKGRFTISRDNAKNTVYLQMNSLKPEDTAVYYCNADYSIPGYYWPYDYWGQGTQVTVSS,low polyreactivity
15,QVQLVESGGGLVQAGGSLRLSCAASGRIISNYAMGWYRQAPGNERELVAAITVIGGRTYYADSVKGRFTISRDNAKNTVYLQMNSLKPEDTAVYYCNAEEYWYDGFYWLSYDYWGQGTQVTVSS,high polyreactivity
16,QVQLVESGGGLVQAGGSLRLSCAASGRTFVSNAMGWYRQAPGKERELVAGINWTDDSTYYADSVKGRFTISRDNAKNTVYLQINSLKPEDTAVYYCAADSLEFAWPRFDYWGQGTQVTVSS,low polyreactivity
17,QVQLVESGGGLVQAGGSLRLSCAPSGFIFARNAMGWYRQAPGKERELVAVISTRGRTYYADSVKGRFTISRDNAKNTVYLQMKRLKPEDTAVYYCNADKVIGYDYWGQGTQVTVSS,high polyreactivity
18,QVQLVESGGGLVQAGGSLRLICDASGRIFATNAIGWYRQAPGKERELVATITRSAGRTYYADSVKGRFTISRDNAKNTVYLQMNSLKPEDTAVYYCAASYWDTEPGYREYDYWGQGTQVTVSS,low polyreactivity
19,PVQLVESGGGLVQAGGSLSLTCAASGSIFPYYTMRWYRPAPGKERELVATITGNGGSTYADSGKGRFTISRDNAKNTVYLQMNSLKPEDTAVYYCAVYGDSYWGAYYYSDGYWGQGTQVTVSS,low polyreactivity
20,QVQLVESGGGLVQAGGSLRLSCAASGFIFGYNVKGWYRQAPGKERELVAAISSRGSSTYYADSVKGRFSISRDNAKNTVYIQMNSLKPEDTAVYYCAAYSSYNSWVSRRYGHDYWGQGTQVTVSS,high polyreactivity
21,QVQLVESGGGLVQAGGSLRLSCAASGFIFSSYAMGWYRQAPGKERELVAAITRNGGSTYYADSVKGRFTISRDNAKNTVYLQMNSLKPEDTAVYYCAAPRWRGVGRFDYWGQGTQVTVSS,high polyreactivity
22,QVQLEESGGGLVQAGGSLRLSCAASGSIFVYYAMGWYRQAPGKERELVAAISSSGTSTYYADSVKGRFTISRDNAKNTVYLQMNSLKPEDTAVYYCATTRRYAYRGGHNYWGQGTQVTVSS,high polyreactivity

row,Sequence,polyreactivity (PSR sort gate)
1,QVQLVESGGGLVLAGGSLRLSCAASGRIFRWYAMGWYRQAPGKERELDATISSTGGSTYYADSVKGRFTISRDNAKNTVYLQMNSLKPEDTAVYYCNAVVYGIFLYAWYDYWGQVTQVTVSS,low polyreactivity
2,QVQLVESGGGLVQAGGSLRLSCAASGSTFPYYAMGCYRQAPGKERELVAAISWSDANTYYADSVKGRFTISRDNAKNTVYLQMNSLKPEDTAVYYCAAEPYDRYVPYTGYGLNYWGQGTQVTVSS,low polyreactivity
3,QVQLVESGGGLVQAGGSLRLSCAASGTFPGNAMGWYRQPPGKERELVATITRGGRTYYADSVKGRVTISRDNANNTVYLQMNSLKPEDTAVYYCNTSVYSGKIRGYDYGGQGTQVTVSS,high polyreactivity
4,QVHLGETGGGLVQAGGSLRLSCAASGSIFSSYAMGWYRQAPGKETELVATITRGGRTSYADSVKGRFTISRDNAKNTVYLQMNSLKPEDTAVDYCAADLYDNVGEFNYWGEGTQVTVSS,low polyreactivity
5,QVQLEVSGGVLVQPGGSIRLSCAASGFIFGFYAKGWYRQAPGKERELVASISGRGGRTSYADSVKGRFTISRDNAKNTVYLQMNSLKPEDTAVYYCNKAGYGVSRKYDYWGQGTQVNVSS,high polyreactivity
6,QVQLVESGGGLVQAGGSLRLSCAASGSTFPPNAMGWYRQAPGKERELVAAISFSSGRTYYADSVKGRFTISRDNAKNTVYLQMNSLKPEDTAVYYCAADHGYWGQGTQVTVSS,low polyreactivity
7,QVQLVESGGGLVQAGGSLRLSCAASGSTFPYNAMGWYRQAPGKERELVATIDRGSTTNYADSVKGRFTISRDNAKNTVYLQMNSLKPEDTAVYYCNAKFIWWYEKGGWNVSKYEYWGQGTQVTVSS,low polyreactivity
8,QVQLVESGGGLVQAGGSLRLSCAASGFTFFDYVMGWYRQAPGKERELVAAISSGGSTYYADSVKGRFTISRDNAKNTVYLQMNSLKPEDTAVYYCATDNGYPDDATDGYYSLYDYWGQGTQVTVSS,low polyreactivity
9,QVQLVESGGGLVQAGGSLRLSCAASGFILQRYAMGWYRKAPGKERELVAAITSSGGRTYYADSVKGRFTISRDNANNTVYLQMNSLKPEDTAVYYCNTVLVYYRMIKFEYWGQGTQVTVSS,high polyreactivity
10,QVQLVDSGGGLVQAGGSLRLSCAASGSIFVTYAMGWSRQAPAKERELVAAITDRGGSTYADSVKGRFTISRDNAKNTVYLQMNSLKPEDTAVYYCAADPDLGDAYDYWGQGTQVTVSS,low polyreactivity
11,QVQLVESGGGLVQAGGSLRLSCAASGSTSVDYTMGLYRQAPGKERELVAAIDYNGDSTYYADSVKGRFTISRDNAKNTVYLQMNSLKPEDTAVYYCAADYLSFVVVKLYGYWGQGTQVTVSS,low polyreactivity
12,QVQLVESGGGLVQAGGSLRLSCAASGIIFGKNAMGWYRQAPGKERELVAAISSSGGSTYYADSVKGRFTISRDNAKNTVYLQMNSLKPEDTAVYYCATERGSRRSGSRMDYWGQGTQVTVSS,high polyreactivity
13,QVQLVESGGGLVQAGGSLRLSCAASGITFLNYAMGWYRQAPGKERELVAAIDTRGGRTNYADSVKGRFTISRDNAKNTVYLQMNSLKPEDTAVYYCNALGYYVHKMDYWGQGTQVTVSS,low polyreactivity
14,QVQLVESGGGLVQAGGSLRLSCAASGSIFSYYAMGWYRQAPGKERELVAAISKRGASTYYADSVKGRFTISRDNAKNTVYLQMNSLKPEDTAVYYCNRVLYDHSFPYNRGYDYWGQGTQVTVSS,high polyreactivity
15,QVQLVESGGGLVQAGGSLRISCASSGFTFSQYAMGWYRQAPGKERELVAAISSSGGRTYYADSVKGRFTISRDNAKNTVYLQMKSLKPEDTAFFYCAAPGAQGLGLRGAGLDYWGQGTQVTVSS,high polyreactivity
16,QVQLVESGGGLVQAGGSLRLSCAASGSIFGIYARGWYRQAPGKEREFVATITLGGGNTYYADSVKGRFTISRDYAKNTVYLQMNSLKPEDTAVYYCAARYFGLKRYDDYWGQGTQVTVSS,high polyreactivity
17,QVQLVESGGGLVQAGGSLRLSCAASGRIFGGNAMVWYRQAPGKERELVAAITTRGGSTYADSVKGRFTISRDNAKNTVYLQMNSLKPEDSAVYYCNKRYVIRRRGYDYWGQGTQVTVSS,low polyreactivity
18,QVQLVESGGGLVQAGGSLRLSCAASGRIFDVNAMGWYRQAPGKERELVAAITDSDGSTYYADSVKGRFTISRDNAKNTVYLQMNSLKPEDTAVYYCAATQEPVTPQPYGYWGQATQVTVSS,low polyreactivity
19,QVQLVESGGGLVQAGGSLRLSCAASGSTFTPYAMGWYRQAPGKERELVAAISRRGGSTSYADSVKGRFTISRDNAKNTVYLQMNSLKPEDTAVYYCNKKTAASDYDYWGQGTQVTVSS,high polyreactivity
20,QVQLVESGGGLVQAGGSLRLSCAASGFTFPIYAMGWYRQAPGKERELVAAITTRGGRTYYADSVKGRFTISRDNAKNTVYLQMNSLKPEDTAVYYCTTRGRRTDYDYWGQGTQVTVSS,high polyreactivity
21,QVQLVESGGGLVQAGGSLRLSCAASGRTFGVNAMGWYRQAPGKERELVAAISYSGASTFYADSVKGRFTISRDNAKNTVYLQMNSLKPEDTAVYYCDARGYYGGFYYWGQGTQVTVSS,high polyreactivity
